Measured values as given in the supplement of paper PMC9732359.
± gives the uncertainty stated by the source.

Assay: protein stability index of a GFP-peptide fusion (yeast GPS) (PSI 1-4); higher = more stable; sorted into four equal gates, so the index is relative within each strain
Procedure, shortened: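 For each peptide, the protein stability index sums the read frequency in every gate after multiplying it by the gate number. Read frequencies came from plasmids that were PCR-amplified from each gate and Illumina-sequenced, with reads assigned to strains by barcodes. The gates were four equal bins of GFP/Cherry fluorescence ratio applied to mid-log yeast in leucine-free medium carrying a pooled library of tiled 17-residue yeast protein peptides fused downstream of GFP on a Cherry-expressing plasmid.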

Row | Sequence | protein stability index (doa10∆) | protein stability index (pdr5∆) | protein stability index (san1∆) | protein stability index (ubr1∆)
1 | ENNRLLFECRTCSYVEE [RPB9] | 3.12 ± 0.13 | 3.2 ± 0.14 | 3.04 ± 0.17 | 3.29 ± 0.16
2 | NEQAARAANQGALPPDL [CYT1] | 3.18 ± 0.058 | 3.32 ± 0.049 | 2.94 ± 0.053 | 3.03 ± 0.042
3 | RAVKEIKKFAKLHMGTD [RPL31A] | 1.7 ± 0.036 | 1.32 ± 0.041 | 1.23 ± 0.061 | 1.58 ± 0.035
4 | YNSVRPFGVSTIFGGVD [PRE10] | 2.53 ± 0.083 | 2.71 ± 0.068 | 2.59 ± 0.14 | 2.57 ± 0.045
5 | NILPFLWGPHGLNSDAE [ECM29] | 2.86 ± 0.21 | 2.71 ± 0.16 | 2.54 ± 0.14 | 2.42 ± 0.2
6 | GETIKSNAVTQTNIWEE [SEM1] | 3.37 ± 0.087 | 3.54 ± 0.16 | 2.97 ± 0.17 | 3.43 ± 0.14
7 | ENRFQDTLLLLPTDGGL [POP4] | 1.46 ± 0.096 | 2.12 ± 0.085 | 1.77 ± 0.11 | 2.44 ± 0.082
8 | SLGIRPCLRKYEEFRDV [RRP43] | 3.27 ± 0.19 |  | 3.21 ± 0.18 | 2.96 ± 0.076
9 | SGDREVQRTMLELLNQL [RPT5] | 3.28 ± 0.12 | 2.73 ± 0.28 | 3.12 ± 0.12 | 3.21 ± 0.1
10 | QLIGSNIELHSLYTSRE [PUP1] | 3.33 ± 0.25 | 3.33 ± 0.2 | 3.34 ± 0.26 | 2.91 ± 0.2
11 | VLDSYTPSTNEPYARVS [FAS1] | 2.94 ± 0.054 | 2.76 ± 0.053 | 2.71 ± 0.066 | 3.01 ± 0.044
12 | GAHKFLDTYLPEDLNSL [SIR2] | 1.85 ± 0.071 | 1.88 ± 0.076 | 1.56 ± 0.13 | 1.81 ± 0.064
13 | LLNEYRPHQSRESLIML [MED7] | 2.31 ± 0.074 | 2.15 ± 0.12 | 2.01 ± 0.12 | 1.98 ± 0.059
14 | LSASWDKTLRLWDVATG [ASC1] | 3.52 ± 0.22 | 3.22 ± 0.12 |  | 3.41 ± 0.072
15 | QFIKSNFEKILLTCYEL [SRB8] |  | 3 ± 0.23 |  | 
16 | FKNDFNSFYYTSLLYLS [RPN9] | 1.33 ± 0.049 | 1.81 ± 0.073 | 2.19 ± 0.11 | 1.25 ± 0.099
17 | VKEYQLRDRNFSATGNF [RPL11A] | 3.29 ± 0.097 | 3.27 ± 0.1 | 2.85 ± 0.28 | 3.22 ± 0.089
18 | VIDTLAAGYGKILGKGR [RPL28] | 3.09 ± 0.12 | 2.63 ± 0.085 | 3.11 ± 0.17 | 3.52 ± 0.14
19 | LEAVNSMIEKGGDWERR [RPN7] | 3.02 ± 0.1 | 3.1 ± 0.093 | 2.8 ± 0.08 | 2.87 ± 0.06
20 | VMKQVETLVLDEADKMI [PRP28] |  |  | 3.42 ± 0.13 | 3.04 ± 0.12
21 | KEELLRDGVLTVTLNKN [RRP45] | 1.78 ± 0.054 | 2.11 ± 0.06 | 2.21 ± 0.084 | 2.06 ± 0.048
22 | QRKTVNSDDILSLHENY [POP1] | 2.55 ± 0.053 | 2.65 ± 0.069 | 2.54 ± 0.068 | 2.92 ± 0.039
23 | HNKLIQFGNACISLSGV [SSN2] | 2.45 ± 0.11 | 2.84 ± 0.14 | 2.73 ± 0.075 | 2.67 ± 0.13
24 | TQTVSGTPPMLHQRTHK [DSN1] | 2.97 ± 0.12 | 3.11 ± 0.097 | 2.89 ± 0.16 | 2.98 ± 0.088
25 | YEQHIENIEPLDPINLP [PRP8] | 2.38 ± 0.11 | 2.9 ± 0.091 | 2.5 ± 0.1 | 2.8 ± 0.071
26 | IEDEDEPFNAGIKYHAT [SMC1] | 3.04 ± 0.083 | 2.82 ± 0.1 | 2.9 ± 0.062 | 2.89 ± 0.05
27 | VAAFVNNYPNVELTYSL [BRR2] | 2.61 ± 0.11 | 2.82 ± 0.087 | 2.74 ± 0.082 | 2.9 ± 0.087
28 | GCLHKGKLISNLSSTPM [YML031W/NDC1] |  | 1.81 ± 0.16 |  | 2.05 ± 0.19
